Experimental findings from article PMC3660597, “Investigation of Specificity Determinants in Bacterial tRNA-Guanine Transglycosylase Reveals Queuine, the Substrate of Its Eucaryotic Counterpart, as Inhibitor” (PLoS ONE, 2013) are described below.

The data set concerns Tgt "wild type" (tRNA-guanine transglycosylase) (Zymomonas mobilis). Kind of data set: MST. Conditions: buffer, salt, pH and temperature not given in the material.

A word on the Kd: it is the equilibrium constant for the complex coming apart.

For tRNATyr, the Kd was 36.2 nM.
